Where two headings read alike, the source gives them in different places.

In article PMC12813973, “Consequences of Peptide Macrocyclization Revealed by Virus-Inspired β‑Hairpin Mimetics” (ACS Chemical Biology, 2025) one finds Kd and IC50 data, which are given here for one molecule.

Assay [1] concerns the target T1, 018 minimal fragment (peptide 1) 11-30 (Vaccinia virus), P17356. Put plainly: ITC.
Assay [2] deals with T1, 018 minimal fragment (peptide 1) 11-30 …. Put plainly: competition.
For assay [3] the target is unchanged.

T1 sequence (P17356 11-30): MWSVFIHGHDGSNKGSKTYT

B1: STAT1, P42224 (protein)
chain: SQWYELQQLDSKFLEQVHQLYDDSFPMEIRQYLAQWLEKQDWEHAANDVSFATIRFHDLLSQLDDQYSRFSLENNFLLQHNIRKSKRNLQDNFQEDPIQMSMIIYSCLKEERKILENAQRFNQAQSGNIQSTVMLDKQKELDSKVRNVKDKVMCIEHEIKSLEDLQDEYDFKCKTLQNREHETNGVAKSDQKQEQLLLKKMYLMLDNKRKEVVHKIIELLNVTELTQNALINDELVEWKRRQQSACIGGPPNACLDQLQNWFTIVAESLQQVRQQLKKLEELEQKYTYEHDPITKNKQVLWDRTFSLFQQLIQSSFVVERQPCMPTHPQRPLVLKTGVQFTVKLRLLVKLQELNYNLKVKVLFDKDVNERNTVKGFRKFNILGTHTKVMNMEESTNGSLAAEFRHLQLKEQKNAGTRTNEGPLIVTEELHSLSFETQLCQPGLVIDLETTSLPVVVISNVSQLPSGWASILWYNMLVAEPRNLSFFLTPPCARWAQLSEVLSWQFSSVTKRGLNVDQLNMLGEKLLGPNASPDGLIPWTRFCKENINDKNFPFWLWIESILELIKKHLLPLWNDGCIMGFISKERERALLKDQQPGTFLLRFSESSREGAITFTWVERSQNGGEPDFHAVEPYTKKELSAVTFPDIIRNYKVMAAENIPENPLKYLYPNIDKDHAFGKYYSRPKEAPEPMELDGPKGTGYIKTELISVSEVHPSRLQTTDNLLPMSPEEFDEVSRIVGSVEFDSMMNTV
For B1, the Kd in assay [1] amounted to 533 nM; in assay [3], 73 nM. For the same molecule, the IC50 in assay [2] stood at 4300 nM.
